Assay results published in patent publication US20220289810A1.

Target: bovine FSH hormone receptor expressed on HEK 293T cells (bovine) (UniProt P35376)
Assay: cell-based or functional assay

Sequence of UniProt P35376 (P35376 18-695): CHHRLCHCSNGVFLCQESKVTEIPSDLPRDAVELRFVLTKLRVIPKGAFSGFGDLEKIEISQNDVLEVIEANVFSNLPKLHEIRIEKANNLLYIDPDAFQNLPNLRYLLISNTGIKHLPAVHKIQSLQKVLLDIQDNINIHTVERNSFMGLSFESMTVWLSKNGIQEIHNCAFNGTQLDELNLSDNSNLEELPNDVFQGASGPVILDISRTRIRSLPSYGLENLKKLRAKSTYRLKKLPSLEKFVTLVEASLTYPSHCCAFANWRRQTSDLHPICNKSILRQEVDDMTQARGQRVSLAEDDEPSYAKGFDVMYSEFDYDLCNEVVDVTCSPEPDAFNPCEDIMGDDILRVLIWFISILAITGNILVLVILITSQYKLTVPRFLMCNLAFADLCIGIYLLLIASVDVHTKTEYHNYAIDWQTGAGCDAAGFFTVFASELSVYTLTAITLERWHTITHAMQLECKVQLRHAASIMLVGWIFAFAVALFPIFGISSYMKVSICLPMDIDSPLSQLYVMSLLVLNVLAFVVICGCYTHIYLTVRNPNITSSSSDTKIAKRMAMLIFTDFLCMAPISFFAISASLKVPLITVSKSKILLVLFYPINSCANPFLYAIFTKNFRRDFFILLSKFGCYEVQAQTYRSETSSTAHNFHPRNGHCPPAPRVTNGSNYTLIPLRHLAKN

Substance | biological activity in vitro by stimulation of luciferase activity | Estimated potency in vitro (sample 5G) | in vitro FSH activity (CRE-luciferase reporter, HEK 293T cells with bovine FSH receptor); affinity purified construct #5 from transiently transfected CHO cells
recombinant single chain equine chorionic gonadotropin CTP-BetaCTP-CTP-Alpha (CONSTRUCT #6) (ligand) | 4770 IU/mg | – | –
recombinant single chain equine chorionic gonadotropin NTP-BetaCTP-CTP-Alpha (CONSTRUCT #5) (ligand) | 4010 IU/mg | 6200 IU/mg | 61 IU
recombinant single chain equine chorionic gonadotropin BetaCTP-CTP-Alpha (CONSTRUCT #4) (ligand) | 13300 IU/mg | – | –
